What was measured:
[1] = molecular target: T1, human TrkB-His (human, UniProt Q16620 32-430); test: BLI off-rate, mAb immobilized, 300 nM TrkB-His
T1 construct: in-house fusion of the TrkB ECD with poly-His, HEK293; also called huTrkB-His; hTrkB-His; not shown: poly-His tag

[2] = molecular target: TrkB in PathHunter eXpress TrkB Functional Assay cells (modified U2OS); test: cell-based or functional assay
[3] = molecular target: T2, mouse TrkB-ECD-GST (mouse, UniProt P15209 32-429); test: ELISA
T2 construct: extracellular domain; in-house fusion, HEK293; also called mTrkB-ECD-GST; mTrkB (ELISA); not shown: glutathione S-transferase (GST) fusion part

[4] = molecular target: T3, human TrkB-ECD-GST (human, UniProt Q16620 32-430); test: ELISA
T3 construct: in-house fusion, HEK293; also called hTrkB-ECD-GST; human TrkB-GST; not shown: glutathione S-transferase (GST) fusion part

[5] = molecular target: T1, human TrkB-His; test: ELISA

Row | Binder | koff [1] [s⁻¹] | TrkB activation (EC50) [2] [ng/mL] | binding result [5] | also measured
1 | anti-TrkB chicken-derived clone B4.2 (antibody, V domains shown, chimeric chicken-human mAb) VH: AVTLDESGGGLQTPGGGLSLVCKASGFTFSSYTMQWVRQAPGKGLEWVAGICNDGTTTNYGSAVKGRATISRDNGQSTLRLQLNNLRAEDTGIYFCTRGVDICWNSGNNIDAWGHGTEVIVSS VL: QAALTQPASVSANPGETVKITCSGGGSYYGSYYYGWYQQKSPGSAPVTVIYNNDKRPSDIPSRFSGSLSGSTNTLTITGVQVEDESVYFCGSKDSSGAGIYGAGTTLTVL | 0.00136 |  |  | 
2 | anti-TrkB chicken-derived clone B11 (antibody, V domains shown, chimeric chicken-human mAb) VH: AVTLDESGGGLQTPGGALSLVCKASGFTFSSFNMFWVRQAPGKGLEFVAHIKRNGGETDYGAAVKGRATISRDDGQSTVRLQLNNLRAEDTATYFCAKDAGDNCRWNYCTTNIDAWGHGTEVIVSS VL: QAALTQPASVSANPGETVKITCSGGGRWYGTYYYGWYQQKSPGSAPVTVIYSNDKRPSDIPSRFSGSASGSTATLTITGVQADDEAVYYCGSWDSTDTTAFGAGTTLTVL | 0.00434 | 0.00086 |  | 
3 | anti-TrkB chicken-derived clone D5 (antibody, V domains shown, chimeric chicken-human mAb) VH: AVTLDESGGGLQTPGGPLSLVCEGSGFTFSSYGMAWVRQAPGKRLEWVASISSTGINAYYGAAVKGRATISRDNGQSTVRLQLNNLRAEDTGIYYCSKCAYSGSCSTSIDAWGHGTEVIVSS VL: QAALTQPASVSANLGGTVEITCSGGSSGYGYGWYQQKSPGSAPVTVIYNNNNRPSDIPSRFSGSLSDSTHTLTITGVRAEDEAVYFCGAWESSATDIFGAGTTLTVL | 0.000219 | 180 |  | 
4 | anti-TrkB clone 3D06 (antibody, V domains shown, full-length IgG) VH: EVQLVQSGAEVKKPGESLKISCQGSGYTFTNYWIAWVRQMPGKGLEWMGIIYPGDSDTRYSPSFQGQVTISADKSISTAYLQWSSLKASDTAMYYCAIGYDYGAFDIWGQGTMVTVSS VL: QPVLTQPPSASGTPGQRVSISCSGSNSNIGSNSVYWYQQLPGTAPKLLIYRNNQRPSGVPDRFSGSKSGTSASLAISGLRSEDEADYYCAAWDDSLSGYVFGTGTQLTVL |  |  |  | binding result [3]: no binding (tested: up to 10 µg/mL); binding result [4]: no binding (tested: up to 10 µg/mL)
5 | KiH.6E08_TrkB × 8A05_CD3 (bispecific antibody, scFv-knob-Fc (IgG1 T366W/S354C) + Fab-hole-Fc (T366S/L368A/Y407V/Y349C); also called 6E08-8A05) scFv: QVQLVQSGGGVVQPGRSLRLSCAASGFTFSSYAMHWVRQAPGKGLEWVAVISYDGSNKYYADSVKGRFTISRDNSKNTLYLQMNSLRAEDTAVYYCARAFRRYDAFDIWGQGTLVTVSSSSGGGGSGGGGSGGSALDIQMTQTPLSLSVTLGQPASISCRSSQGLVYSDGNTYLNWFQQRPGQSPRRLIYKVSNRDSGVPDRFSGSGSGTDFTLKISRVEAEDVGVYYCMQGTHWPPAFGQGTKVEIK VH: QVQLQQSGGGLVQSGGSLRLSCAASGFSFGSSAMSWVRQAPGRGLEWVSGISHSGSTTYYADSVKGRFTISRDNSKNTLYLQMNSLRVEDTAVYYCAKIGAYGYYFHYWGQGTLVTVSS VL: NFMLTQPHSVSESPGKTVTISCTRSGGSIASNYVQWYQQRPGSSPTTVIYDDNQRPSGVPDRFSGSIDSSSNSASLTISGLKTEDEADYYCQSSDNINHVIFGGGTKLTVL |  |  | binds | 
6 | KiH.3C12_TrkB × 3G07_CD3 (bispecific antibody, scFv-knob-Fc (IgG1 T366W/S354C) + Fab-hole-Fc (T366S/L368A/Y407V/Y349C); also called 3C12-3G07; 3C12/3G07) scFv: QVQLVQSGAEVKKPGESLKISCKGSGYSFTSYWIGWVRQMPGKGLEWMGIIYPGDSDTRYSPSFQGQVTISADKSISTAYLQWSSLKASDTAMYYCTRSSFNDHWGQGTLVTVSSSSGGGGSGGGGSGGSALQPVLTQPPSVSVSPGQTASITCSGDKLGNKFVSWFQQKPGQSPVLVIYQDTKRPSGIPERFSGSNSGSTATLTITGTQAMDDADYYCQAWNTNTALFGGGTKLTVL VH: QVQLQQSGGGLVQPGGSLRLSCAASGFSFGSSAMSWVRQAPGRGLEWVSGISHSGSTTYYADSVKGRFTISRDNSKNTLYLQMNSLRVEDTAVYYCAKIGAYGYYFHYWGQGTLVTVSS VL: NFMLTQPHSLSESPGKTVTISCTRSSGSIASKYVQWYQQRPGSAPTTVIYDDKQRPSGVPDRFSGSFDSSSNSASLTISGLKTEDEADYYCQSFDSTNQAVVFGGGTKLTVL |  |  | binds | 
7 | KiH.6E08_TrkB × 3G07_CD3 (bispecific antibody, scFv-knob-Fc (IgG1 T366W/S354C) + Fab-hole-Fc (T366S/L368A/Y407V/Y349C); also called 6E08-3G07) scFv: QVQLVQSGGGVVQPGRSLRLSCAASGFTFSSYAMHWVRQAPGKGLEWVAVISYDGSNKYYADSVKGRFTISRDNSKNTLYLQMNSLRAEDTAVYYCARAFRRYDAFDIWGQGTLVTVSSSSGGGGSGGGGSGGSALDIQMTQTPLSLSVTLGQPASISCRSSQGLVYSDGNTYLNWFQQRPGQSPRRLIYKVSNRDSGVPDRFSGSGSGTDFTLKISRVEAEDVGVYYCMQGTHWPPAFGQGTKVEIK VH: QVQLQQSGGGLVQPGGSLRLSCAASGFSFGSSAMSWVRQAPGRGLEWVSGISHSGSTTYYADSVKGRFTISRDNSKNTLYLQMNSLRVEDTAVYYCAKIGAYGYYFHYWGQGTLVTVSS VL: NFMLTQPHSLSESPGKTVTISCTRSSGSIASKYVQWYQQRPGSAPTTVIYDDKQRPSGVPDRFSGSFDSSSNSASLTISGLKTEDEADYYCQSFDSTNQAVVFGGGTKLTVL |  |  | binds | 
8 | KiH.3C12_TrkB × 8A05_CD3 (bispecific antibody, scFv-knob-Fc (IgG1 T366W/S354C) + Fab-hole-Fc (T366S/L368A/Y407V/Y349C); also called 3C12-8A05; 3C12/8A05) scFv: QVQLVQSGAEVKKPGESLKISCKGSGYSFTSYWIGWVRQMPGKGLEWMGIIYPGDSDTRYSPSFQGQVTISADKSISTAYLQWSSLKASDTAMYYCTRSSFNDHWGQGTLVTVSSSSGGGGSGGGGSGGSALQPVLTQPPSVSVSPGQTASITCSGDKLGNKFVSWFQQKPGQSPVLVIYQDTKRPSGIPERFSGSNSGSTATLTITGTQAMDDADYYCQAWNTNTALFGGGTKLTVL VH: QVQLQQSGGGLVQSGGSLRLSCAASGFSFGSSAMSWVRQAPGRGLEWVSGISHSGSTTYYADSVKGRFTISRDNSKNTLYLQMNSLRVEDTAVYYCAKIGAYGYYFHYWGQGTLVTVSS VL: NFMLTQPHSVSESPGKTVTISCTRSGGSIASNYVQWYQQRPGSSPTTVIYDDNQRPSGVPDRFSGSIDSSSNSASLTISGLKTEDEADYYCQSSDNINHVIFGGGTKLTVL |  |  | binds | 
9 | anti-TrkB clone 4D01 (antibody, V domains shown, full-length IgG) VH: EVQLVQSGAEVKKPGESLKISCKGSRYSFTSYWIGWVRQMPGKGLEWMGIIYPGDSDTRYSPSFQGQVTISADKSISTAYLQWSSLKASDTAMYYCARLKDGAFDIWGQGTMVTVSS VL: QAVLTQPPSASGTPGQRVTISCSGSSSNIEGNYVHWYQQLPGAAPKVLIYRNNQRPSGVPDRFSGSKSGTSASLAISGLRSEDETDYFCAAWDDSLNGYVFGAGTKVTVL |  |  |  | binding result [3]: no binding (tested: up to 10 µg/mL); binding result [4]: no binding (tested: up to 10 µg/mL)
10 | anti-TrkB chicken-derived clone B1.2 (antibody, V domains shown, chimeric chicken-human mAb) VH: AVTLDESGGGLQTPGGGLSLVCKASGFTFSNHQMAWVRQAPGKGLEYVGLINAAGSWTYYGTAVKGRATISRDNGQSTVRLQLNNLRAEDTATYYCAKDVYGYCSTCGATIDTWGHGTEVIVSS VL: QAALTQPSSVSANPGETVKITCSGPTYDYGWFQQKSPGSAPVTVIYYNDNRPSDIPSRFSGSKSGSTATLTITGVQAEDEAVYYCGTYEDNNGASFGAGTTLTVL | 0.000483 | 7.5 |  | 
11 | anti-TrkB chicken-derived clone E2 (antibody, V domains shown, chimeric chicken-human mAb) VH: AVTLDESGGGLQTPGGALSLVCKASGFDFSSNAMGWVRQAPGKGLEFIASITTDGSYTTYGAAVKGRATISRDDGQSTLRLQLNNLRAEDTATYYCAKDSSIHWNGYDIDAWGHGTEVIVSS VL: QAALTQPSSVSANPGETVKITCSGSINNYGWYQQKSPGSAPVTVIYQNDKRPSDIPSRFSGSKSGSTGTLTITGVQAEDEAVYFCGSEDSRTYLGIFGAGTTLTVL | 0.000575 | 170 |  | 
12 | KiH.3C12_TrkB × 1A09_CD3 (bispecific antibody, scFv-knob-Fc (IgG1 T366W/S354C) + Fab-hole-Fc (T366S/L368A/Y407V/Y349C); also called 3C12-1A09; 3C12/1A09) scFv: QVQLVQSGAEVKKPGESLKISCKGSGYSFTSYWIGWVRQMPGKGLEWMGIIYPGDSDTRYSPSFQGQVTISADKSISTAYLQWSSLKASDTAMYYCTRSSFNDHWGQGTLVTVSSSSGGGGSGGGGSGGSALQPVLTQPPSVSVSPGQTASITCSGDKLGNKFVSWFQQKPGQSPVLVIYQDTKRPSGIPERFSGSNSGSTATLTITGTQAMDDADYYCQAWNTNTALFGGGTKLTVL VH: EVQLVQSGGGLVKPGGSLRLSCAASGFTFSSYSMNWVRQAPGKGLEWVSSISSSSSYIYYADSVKGRFTISRDNSKNTLYLQMNSLRAEDTAVYYCARVKDYDSSLDYWGQGTLVTVSS VL: SYELMQPPSVSVSPGQTARITCSGFKLGDKYVSWYQQKPGQSPVLVIYQDSKRPSGIPERFSGSNSGNTATLTISGTQAMDEADYYCQAWDSSTVVFGGGTKLTVL |  |  | binds | 
13 | anti-TrkB chicken-derived clone F1.3 (antibody, V domains shown, chimeric chicken-human mAb) VH: AVTLDESGGGLQTPGGALSLVCKASGFTFSSFPMVWVRQAPGKGLEFVAGIVRTSTPKYGAAVTGRATISRDNGQSTVRLQLNNLRAEDTGTYFCAKSATICGNCPEDIDAWGHGTEVIVSS VL: QAALTQPASVSANPGETVKITCSGGSSDYGWFQQKSPGSAPVTVIYYSDKRPSDIPSRFSGSTSGSTNTLTITGVQVEDEAVYFCGSGDNSYVGFGAGTTLTVL | 0.0156 | 380 |  | 
14 | anti-TrkB chicken-derived clone A12 (antibody, V domains shown, chimeric chicken-human mAb) VH: AVTLDESGGGLQTPGGALSLVCKASGFTFSSFPMVWVRQAPGKGLEFVAGIVRTSTPKYGAAVTGRATISRDNGQSTVRLQLNNLRAEDTGTYFCAKSATICGNCPEDIDAWGHGTEVIVSS VL: QAALTQPASVSANPGETVKITCSGGSSDYGWFQQKSPGSAPVTVIYYSDKRPSDIPSRFSGSASGSMGALIITGVQAEDEAVYFCGSRDSSNVAIFGAGTTLTVL | 0.00176 | 4.5 |  | 
15 | anti-TrkB chicken-derived clone B5 (antibody, V domains shown, chimeric chicken-human mAb) VH: AVTLDESGGGLQTPGGALSLVCKASGFTFSSFPMVWVRQAPGKGLEFVAGIVRTSTPKYGAAVTGRATISRDNGQSTVRLQLNNLRAEDTGTYFCAKSATICGNCPEDIDAWGHGTEVIVSS VL: QAALTQPASVSANPGETVKITCSGGSSDYGWFQQKSPGSAPVTVIYYSDKRPSDIPSRFSGSTSGSMGALIITGVQAEDEAVYFCGSRDSSNVAIFGAGTTLTVL | 0.00114 | 8.9 |  | 
16 | anti-TrkB chicken-derived clone F5 (antibody, V domains shown, chimeric chicken-human mAb) VH: not shown VL: QAALTQPASVSANPGETVKITCSGYKSYYGWYQQKSPGSAPVTVIYDNTNRPSNIPSRFSGSTSGSTATLTITGVQADDEAVYYCGNADHSYVGVFGAGTTLTVL | 0.00163 | 46 |  | 

— patent publication US20260092121A1 (TALEM THERAPEUTICS, published 2026)
